Experimental data from article PMC3290997 (Biochemistry, 2012).
Like-named read-outs stand apart in the source and are kept apart here. No end group written: not given here. *: point of attachment. Biotin = O=C1N[C@H]2[C@H](CS[C@H]2CCCCC(=O)*)N1; MBP = 4-maleimido-benzophenone

Experiments:
SecA [1] = target: T1, SecA (E. coli, UniProt P10408 1-901); assay: cross-linking
SecA [2] = target: T1, SecA; assay: cross-linking; remark: listed apart in the source

T1 sequence (P10408 whole entry): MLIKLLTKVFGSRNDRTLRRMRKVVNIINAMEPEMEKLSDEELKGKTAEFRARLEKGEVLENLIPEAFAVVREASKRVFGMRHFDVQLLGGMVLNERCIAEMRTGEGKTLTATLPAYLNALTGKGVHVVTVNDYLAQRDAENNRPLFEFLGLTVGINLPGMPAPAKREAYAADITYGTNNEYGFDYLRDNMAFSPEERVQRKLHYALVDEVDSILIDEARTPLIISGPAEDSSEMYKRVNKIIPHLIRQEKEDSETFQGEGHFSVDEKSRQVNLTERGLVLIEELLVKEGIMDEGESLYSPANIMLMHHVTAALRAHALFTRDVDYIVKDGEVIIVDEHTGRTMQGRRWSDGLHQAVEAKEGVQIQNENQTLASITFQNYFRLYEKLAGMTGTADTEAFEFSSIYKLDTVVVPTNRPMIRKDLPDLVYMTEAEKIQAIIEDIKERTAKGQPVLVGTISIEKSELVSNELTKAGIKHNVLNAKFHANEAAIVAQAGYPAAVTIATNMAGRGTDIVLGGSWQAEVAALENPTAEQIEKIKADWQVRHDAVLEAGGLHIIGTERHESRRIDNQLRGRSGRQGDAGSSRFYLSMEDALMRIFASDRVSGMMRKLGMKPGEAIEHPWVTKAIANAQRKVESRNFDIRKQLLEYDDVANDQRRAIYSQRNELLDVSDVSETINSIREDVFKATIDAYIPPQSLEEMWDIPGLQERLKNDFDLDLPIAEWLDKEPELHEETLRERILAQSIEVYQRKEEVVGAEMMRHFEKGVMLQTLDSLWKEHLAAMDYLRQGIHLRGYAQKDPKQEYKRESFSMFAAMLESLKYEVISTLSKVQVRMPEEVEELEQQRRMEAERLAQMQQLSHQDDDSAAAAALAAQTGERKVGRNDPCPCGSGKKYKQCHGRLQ

| Binder | binding result (SecA [1]) | binding result (SecA [2]) |
| --- | --- | --- |
| Biotin-MMITLRKRRKLPLAVAVAAGVCSAQAMA [Biotinylated-KRRLamB19C signal peptide] | binds |  |
| Biotin-MMITLRKRRKLPLAVAVAAGVC(MBP)SAQAMA [Bio-KRRLamB19C-MBP] |  | binds |
